According to patent EP1073891B1, “METHOD OF PREDICTING RECEPTOR MODULATING ACTIVITY” (Duke University, priority 1998, dated 1999):
Values joined by “and” are separate entries in the source; they are usually repeats but may differ in a detail not shown here. Equal entries are not always repeated.

Columns and labels:
ERα = target: T1, ERα (Homo sapiens, UniProt P03372); test: Phage ELISA / fingerprint on ER immobilized on biotinylated ERE (Examples 2.3-2.5); type: binding; parameters: purchased PanVera Corporation, Madison, WI; key to binding activity, ERα and buffer / binding activity, ERα and estradiol / binding activity, ERα and tamoxifen / binding of peptide, Class Specific Fingerprint on ERα: semiquantitative scale of 0 to 7+; 1+: semiquantitative scale of 0 to 7+; 2+: semiquantitative scale of 0 to 7+; 3+: semiquantitative scale of 0 to 7+; 4+: semiquantitative scale of 0 to 7+; 5+: semiquantitative scale of 0 to 7+; 6+: semiquantitative scale of 0 to 7+; semiquantitative scale of 0 to 7+; conditions: for binding activity, ERα and estradiol: ERα and estradiol (1 µM); for binding activity, ERα and tamoxifen: ERα and tamoxifen (4-OH tamoxifen, 1 µM)
T1 sequence (P03372 1-595): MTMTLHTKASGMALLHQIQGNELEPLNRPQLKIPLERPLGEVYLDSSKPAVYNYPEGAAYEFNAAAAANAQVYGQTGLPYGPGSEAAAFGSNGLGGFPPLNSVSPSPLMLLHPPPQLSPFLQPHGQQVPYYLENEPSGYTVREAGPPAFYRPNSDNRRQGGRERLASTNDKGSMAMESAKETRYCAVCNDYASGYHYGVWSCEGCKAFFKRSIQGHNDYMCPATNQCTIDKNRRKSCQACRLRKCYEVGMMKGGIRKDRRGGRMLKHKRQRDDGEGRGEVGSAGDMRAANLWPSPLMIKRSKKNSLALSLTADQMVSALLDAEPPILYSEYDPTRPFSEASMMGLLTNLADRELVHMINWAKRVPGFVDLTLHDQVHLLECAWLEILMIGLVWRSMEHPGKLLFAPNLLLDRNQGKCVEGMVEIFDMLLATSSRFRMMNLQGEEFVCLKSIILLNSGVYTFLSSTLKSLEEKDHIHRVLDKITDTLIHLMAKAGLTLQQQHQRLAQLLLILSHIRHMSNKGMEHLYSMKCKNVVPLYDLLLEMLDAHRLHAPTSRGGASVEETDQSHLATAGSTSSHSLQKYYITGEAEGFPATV

ERβ = ERβ (Homo sapiens, UniProt Q92731); test: as above; type: binding; parameters: purchased PanVera Corporation, Madison, WI; key: semiquantitative scale of 0 to 7+; 1+: semiquantitative scale of 0 to 7+; 2+: semiquantitative scale of 0 to 7+; 3+: semiquantitative scale of 0 to 7+; 4+: semiquantitative scale of 0 to 7+; 5+: semiquantitative scale of 0 to 7+; 6+: semiquantitative scale of 0 to 7+; semiquantitative scale of 0 to 7+; conditions: for binding activity, ERβ and Estradiol: ERβ and Estradiol (1 µM); for binding activity, ERβ and tamoxifen: ERβ and tamoxifen (4-OH tamoxifen, 1 µM)
ERβ, sequence (Q92731 whole entry): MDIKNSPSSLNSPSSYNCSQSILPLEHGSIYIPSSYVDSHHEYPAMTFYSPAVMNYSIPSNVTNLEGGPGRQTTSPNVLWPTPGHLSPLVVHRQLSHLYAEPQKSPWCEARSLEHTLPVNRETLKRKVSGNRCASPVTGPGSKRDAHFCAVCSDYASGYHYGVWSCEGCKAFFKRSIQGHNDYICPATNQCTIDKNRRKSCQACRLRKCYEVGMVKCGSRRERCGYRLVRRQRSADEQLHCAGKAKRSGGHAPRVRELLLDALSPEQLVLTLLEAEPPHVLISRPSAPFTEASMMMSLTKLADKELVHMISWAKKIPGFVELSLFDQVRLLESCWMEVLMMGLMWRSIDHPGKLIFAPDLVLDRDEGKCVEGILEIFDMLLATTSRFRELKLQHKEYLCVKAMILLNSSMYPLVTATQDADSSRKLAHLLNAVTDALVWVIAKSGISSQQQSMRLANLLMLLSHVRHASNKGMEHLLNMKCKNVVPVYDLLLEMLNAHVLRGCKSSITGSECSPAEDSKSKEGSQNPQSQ

Sequence | binding activity, ERα and estradiol (ERα) | binding activity, ERα and tamoxifen (ERα) | binding activity, ERβ and Estradiol (ERβ) | binding activity, ERβ and buffer (ERβ) | binding activity, ERβ and tamoxifen (ERβ) | binding activity, ERα and buffer (ERα)
SREGWMGPWRLADSR [Peptide 12t-β] | 1+ | 1+ | 7+ | 7+ | 7+ | –
SSRLVPHSFWLDGLMHGSR [Peptide 21t-β] | 3+ | 6+ | 3+ | 3+ | 7+ | 3+
SSTRLMCWLGSADTSHCSR [Peptide 28E-β] | 3+ | 3+ | 7+ | 3+ | 2+ | 4+
SRECVGGWCLAELSR [Peptide 18b-β] | 2+ | 2+ | 7+ | 7+ | 7+ | 2+
SSTSWLHHYLMGTSR [Peptide 8b-β] | 4+ | 2+ | 7+ | 7+ | 1+ | 1+
SSWPNPTFWERQLSR [Peptide 3b-β] | 3+ | 3+ | 2+ | 5+ | – | 5+
SSDTRSRLYELLSSSYTSR [Peptide 5E-β] | 6+ | 4+ | 7+ | 5+ | 2+ | 4+
SSVFTIMDGKVALSR [Peptide 1t-β] | 3+ | 7+ | 2+ | 3+ | 7+ | 3+
SSRLLCLLDAGQCSR [Peptide 16E-β] | 6+ | 3+ | 7+ | 6+ | 2+ | 3+
SSLDLSQFPMTASFLRESR [Peptide 35E-β] | 2+ | 2+ | 6+ | 2+ | 1+ | 2+
HSWLGPWRLSSIDLGG [Peptide 24b-β] | 2+ | 3+ | 7+ | 7+ | 7+ | 2+
SRNLLCLLDQEACSR [Peptide 17E-β] | 4+ | 4+ | 7+ | 3+ | 1+ | 5+
SSKLYCLLDESYCSR [Peptide 21b-β] | 7+ | 3+ | 7+ | 7+ | 3+ | 6+
SRHGILWDLLQGDSR [Peptide 2E-β] | 7+ | 5+ | 7+ | 4+ | 2+ | 6+
SSTTMFDFFYERLSR [Peptide 6t-β] | 4+ | 6+ | 4+ | 7+ | 7+ | 4+
HSYSSHPLLLSYLWGG [Peptide 23b-β] | 6+ and 3+ | 3+ | 7+ and 6+ | 7+ | 3+ and 7+ | 3+
SSWNSREFFLSQLSR [Peptide 5t-β] | 2+ | 5+ | 2+ | 2+ | 7+ | 3+
